Reference: the supplement of paper PMC12636428

System: Saccharomyces cerevisiae
Assay: transcriptional activation domain activity (GFP:mCherry ratio, weighted mean of sorted bins, harmonized to initial dataset scale) (arbitrary fluorescence ratio units); higher = stronger transcriptional activation
Details: beta-estradiol 1 µM; induction time 4 h
Summary of the method: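 After a 1:5 dilution into SC with 1 uM beta-estradiol and 4 hours at 30 °C, yeast diploids carrying a GFP reporter and URA3-integrated barcoded tiles were sorted into 8 bins by GFP:mCherry ratio. The tiles were fused to an estradiol-inducible synthetic transcription factor. Barcodes were sequenced, tiles below 50 reads were discarded, and activation activity was taken as the read-weighted mean of bin median fluorescence, averaged across barcodes and linearly mapped onto the initial dataset scale.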

Sequence | transcriptional activation domain activity
KQYCVRPNSGRIDPGKEVEVQVLLQAMKEDPPLDAKCRDKFLVQSVAVSADKE | 64500
WWLLGDSYESEIISLVILFQFWNNGALVNFGSAFRQAWWRNYLLVFVWSCFFI | 17800
MGSTIVFSVVFIWFFLVSFQQLLPFPKGTFFLLFLFPFSLSLPESSCIIFLAF | 51800
IGVRFDTSIKFINGHLERFLAYLGDPLLKQLCSGEILRRLLLLIIDPPILWND | 79200
MITVLSVIPLLLLLLLLLLLLLLLLLLLLISPLFRLGSLFVFCPYILFRLWWV | 42000
ESEVAVVVHIGANTTAYQFLALCAMMAPMRDLFYAFGRVTIYALAPMFHAVRV | 73900
NLFGWVRYAGVSVDHLKVHIVGAELWNRYKYAAGIWGYRALPIIALMASLIAC | 54200
LQVVIEECDLMPTVAVLLRDAKKVFPERDGFFLYRQMAISVVCVYILCSLFAL | 67900
EVLITKKPAKQTRGKKAPTAAVNKAEIEEGQDDVNFANVGRGRKRAVAKKVVE | 25700
MQAGIHNVLFHFRNKWWIQIIGSGLPYFVLLAGRGLMCIFLFLIFRLRRCLCV | 67300
MREKDNDETTTGIFFLFLFLDKILLLFAWYLPWSSSQFLRLLFSLVLFWAVTL | 45300
MAPCIPVMYLSVSSTSFLFLSFFILGWWILFSFTIFPATNSFLCFWAPFFFSH | 46100
LSYCHRPVFTCCDLYRTCLYCSIFYLLSFPILLPPSISLHIILLFSHTILIIL | 31700
LSLPPPLPFFPPLFPFFFLFFFYLLISFFFSFLFCGEMDLGWALQVAAATYSH | 36700
TNNEFEGESDDFVHSPYLNSEADFSQILSSAPPVHHDPNETHQENQDIIDRFA | 66800
NQQPVFRAKYLLRQLFHLCNRTEHELRTLWTPAMVVLVARRLFDSIHPALGSL | 58300
DNYILNNENDDGLDNLLGMDYYNIDDLLTQELRDLDIPLVPSPKTGDGSSDKK | 109000
MHPCTLLSFRVFAYFYLLLIPPPPLLYSYLSYTNIYSYIIVLLLLLLFYVTIV | 54800
MVCCAFFVVFFLIEIFIILFLCLPFFSFLFLLWEGRVGGYALWLLSVQVCVRT | 55800
AANFHDTHGFGSMPQHLKKKPKAEGEGAGKAEEVKAEVSATAEAEESATAKAE | 34800
RLGQCVKRYFDSKQVTHLVNAGKYGTGVVSYLFYFMWSYREESRGANFALWCF | 79300

Sequence | transcriptional activation domain activity
WGRKGRGKSPLYDFDVNEFDPQVLFSTGTRTVEFMDDQNQPSSASAFLSTARP | 49300
ICGSVLKELEHKPFFIWFLRCVYHKVLVVLKNGPSAVVSVAEVQRPPQIGDEV | 30400
ASLEGGGGVVDISGETSSYVWRVLVYLAFINPFFCFLCALYAILILLAVLVTY | 29300
VQKNYIMQYGNSLIGHQLKTLVQVNAFHVYDLVDSMQFLLTKVISELATLLWF | 59200
FLHLLKYIRPSFAFYFTILFWWCIQVQLLLQIIINRIRVIVPDRRHSRHIMIA | 68800
LTHGRERSLIWKAKSSLNKWMFLVLRYFALLDLMFTVAVDTNFHVKYNTPFCI | 72400
MYHIPWPQVLWVGYQLRPTQIMGIFCSHLSVVLLVLPTPYYFLFHVLFLLWAS | 48900
KSKSSRSSRRREGEEDDDRRRRRHRHRSRSHSRGRDGDNDDPKEKRRSRRHDD | 38400
MQYVANATPVTCDYDGFDGSGMLVIPNIAIYLSATSGLACIIKCFEILWWYMA | 65000
ESHLVPEASKIWKPLDGYWMPSWMKYQIFIPLFMLQLLNLFWYFLIWHILIRA | 44900
MDSLFFFFFLLFFFSSCFGFGCSVGLFLFFSVVCNLYFCLLRSYMYLLALLFT | 51500
APDAKTVLPIPELDDAVVESFFSSSTDSTPMFEYENLEDNSKEWTSLFDNDIP | 137000
TDYYQAVGQHDFIKAFHDEIGPFHRKVYDNVIRKIFVLLAIILELPENYFVDR | 40900
SIWSFSTLLSILARDHVFYFFIKQNVDTFYIWLLETTAIYYIFMLGPIMFLSI | 60600
GGLWNLVMWHWMLSFLAGICCFFLQILTYIWLQESSVIRISTSCLAGFWILPL | 91700
MSPLPSPLSFPLFLFFSLSLSNLVCMPHPLLSSLSLSTPPALFFLYLFFLATL | 55100
ISCLGLTGWAGRFGSLYYIISMGGCSLSLGAMIAHVELKDSANCWWWFRYGFW | 77400
NLLQHIIPPFFINHHHHYYSPFHTSYTFFFSTFVYALFFYIIMYLSIFISLLL | 62200
INSTIHNLLEVVLLPDLCGFCCFSMRFVVLLDLIGTLTLPVSAVYLVYLIYVI | 59000
ICLALCTVLTTLTLGVSLYFGVVLVRSDFLWQVSFRDLTWSYFVAFGAQVIVD | 41100
KAVFKALPILVVASVGCASTNLLIRTVIIWRKEHLVISVLLLLYVGHWTILFV | 32100

Sequence | transcriptional activation domain activity
DSPVDRAMNTPLQQQEGLKAELPHDFLFQHGTDDTMYNLTDDLSSSLSSSINS | 68200
LIHLMNIAQVVILFVHRFIFGVIPLFEIKTCSFWPLLVSLWHLNYIIIYSIMF | 51600
FFLFLFFPFSFSFLFFSFFHFLPMLAHCYNGVTISVSLWFPLILASLFRPFLL | 64300
VKVVRGTGKLIFLSRCIEPWLPKNNAYLLSLPWLDWKSLVLTVLYGIKGYCFL | 62600
MRLCFAKYHFPPPSTFFPPLLFSLLCPVAFYANYCPFFFFFLFLFPYSFFVQE | 63600
GWVVILSSRCRIKTSVSRERLKMDVFWLIESIGLTVEYWRIVWDLRATYHFLR | 33000
RAKADAILRELQDTFFPSAAFRAWLTIVTKLIPLSCAVEARRFRPGLDYTLAT | 77700
EEDDVKSEKSSRSKRRESTKEEVASPVRSERGSDKSSRSKKRDIVAEAAAIVS | 35500
AEEPAPEAPAPEEPAVEEAVPAEEAAPEAPAPVEEATPEKPVAAEEAAPEAPA | 32600
IYVLHLFSTFPIFPLFPLFPIFLNFFIFLILILIFPIFPIFPIFPIFLIFPIF | 52900
RDVFLGILHRNWFNRVWILQEVASARAAVVFCGRNSISTRIFTRLPLLFDITP | 68000
MLPQFQEGNCEDLWNVLVWCTIPIPFDDCEAYPCDYQQNPYPNHINFWFYLFW | 55600
RCMVIYRSSGFFFWAIVLLPCLMFLASFSESLFQYISSPSFTVTVRLGLGILF | 63200
SYYNLLCFSLCVRVCVCFVLLIILSFVSLLCFSFLLCFHCVLPFFFFFVFFFF | 49200
ASLHCLRSSPSSSSPCAARERSSSRARTSSSMCPIAPTHKPRSSTGSPARGTP | 19900
SGFPSVGFNFFLFFSMMQPAMFLVSLFFQSLFFLCLNTCVCFFGFNFFFLVHW | 34800
SLHLCFSMCLTMIGYIILIKIDTLEHKAVAYFACFLLTSGAFAPSCLFHSWHN | 33300
GELLYIILSIVDVDLICRFTIIHPIPTFDNLTALNMVIDRMQEVGLYLVYDMR | 52300
MVYMSSVNVWGLDIYYSRVSIYLFFFPSLFFLWAASMSLFPYYFLPSLFYIVL | 26500
KFYVIYTLFMVVFFMVLTICYYTNGSYGRDALGLCNFKEWNGRLVSRVYMMYL | 45000
RTSEMIMGFFFKNIVWTFVLFWYQIFCQFNGSMMFEYVLVALYNLIFTSLPII | 62900

Sequence | transcriptional activation domain activity
ETGSEWREGSSDGFRSVKTVLLGVWAEYGGLRRNEICDTLRRLTLSSLGKINP | 53800
VCVANIFVVFSLYSYTWIQAVVISLSILVYYAFIAIYAQFNTFLFAGQIRLFG | 70400
SDEEEKPKPKQGKKKAKAPKKEEEFEGEPEEEEKPKPKKTNGRKKAVKAEEED | 36300
MRVCVTSLFFFPLSFFPILIKLFLLSHHLFPTSNPFSFVFSSFAPFLPAFSFI | 40900
AMAEKAAEEKPAAKKRGRPPKGPTMVEVVVEAPPAKKRGRPAKEDGAAAAATA | 20000
MAGRKRAAAEDTTEKRETRSSKVAKTEGTKTAGKAAKGTARLKARLIISLTIL | 34500
QLTRGNWSDLFFLFIFLWIVLFFFLLHWSWAWLLVFVLSICSSGLLGAILFFF | 27200
ERRMGTCRSFHLRVGLPQLYAARLLIKASLDVRRLSVWQLGQLVWSIQKFSRQ | 32200
SLGCTLVYVAHISYLSLLPRFDYSYNMAFNLTLGLTHNFLWLLYSLPSFCAIP | 52300
ASPDADGNGEVKKKYDPKDPMRPRRKKARRACYACQRAHLTCGDERPCQRCIK | 43400
MTCCLNLFCLLLINLIFFVCACCLLVFSLLAIQNKLPECILLPINIFKMLTIL | 52900
MSGFVRLLFTFDFRNVLVDILVLHIPLYLFPLFVLSEEFLLLFSFCLFVFLSF | 31000
MATFLSCLRPFVCSFFLFSFLFRPWPWVYIHVGFGGNSCSTFDFLSIFFVTFF | 43300
DVNTGATSAPLSVGDVRHVAAPLEESGGCTLAMLVDDDGVMRIVVLRVTVDPV | 35300
MDGVLKLPFLSFLFPFFLFFSSPPLFSPCFFPLFLSFFAVIAFFPFLCFCLPV | 29300
INILIFICLPYRNFQFFLYLVPMSCSLTPCHWQVIASKLEILLLSTYWITFVA | 61200
AKKADAPAPAAPAKANKRKKAEESEAESEEEPAPAVKKPKVEQPKAAPKAAKA | 26700
SVVKFIEEYQAYFNTSYEVFLLLYISFILVTTLWCTSLIIYRILTVHLIEVLV | 29800
QDAGGSGDKKGGVYVHCAMGKSRSVTCVVAYLLYRYPHRYGGTAGSSSTAQRR | 45800
PYQSSVDVLPRPLPVLRWTWVIVGISCFYFWCVSIPAPFLLFRICFPHFNLLT | 50500
